Measured values reported in patent US20240270846A1 (published 2024).
Positions count from the first letter of the chain named. Numbers in names are those of the source. Where no end group is shown, it is not given here.

B1: DXDU01_3#019 (antibody, human IgG1, V domains shown)
VH: QVQLVESGGGLVQPGRSLRLSCAASGFTFSIAWMHWVRQAPGKGLEWVAQIKDKVNGYTAYYAESVKGRFTISRDDSKNSIYLQMNSLKTEDTAVYYCRYVHYAAYYDVLGYGGVDAWGQGTTVTVSS
VL: DIVMTQSPLSLPVTPGEPASISCRSSQSLVHSNRNTYLHWYQQKPGQAPRLLIYKVSNRFSGVPDRFSGSGSGTDFTLKISRVEAEDVGVYYCGQGTQVPYTFGQGTKLEIK
notes: IgG: VH joined to human IgG1 CH1-Fc; also called dBBDu125
B2: DADU01_3#001 (antibody, human IgG1, V domains shown)
VH: B1 VH with K54R, G57A, T59E, E64P, A105S, V109L
VL: B1 VL
notes: IgG: VH joined to human IgG1 CH1-Fc; also called dBBDu_126; dBBDu126
B3: DXDU01_3#051 (antibody, human IgG1, V domains shown)
VH: QVQLVESGGGLVQPGRSLRLSCAASGFTFSNAWMHWVRQAPGKGLEWVAQIKDRGQQYNAYYAPSVKGRFTISRDDSKNSIYLQMNSLKTEDTAVYYCHYVHYASASSVLPGYGVDAWGQGTTVTVSS
VL: B1 VL
notes: IgG: VH joined to human IgG1 CH1-Fc; also called dBBDu127
B4: DXDU01_3#072 (antibody, human IgG1, V domains shown)
VH: B3 VH with G55S, Q57L, N59A, S108T, P111G, G112A
VL: B1 VL
notes: IgG: VH joined to human IgG1 CH1-Fc; also called dBBDu122
B5: DXDU01_3#094 (antibody, human IgG1, V domains shown)
VH: B3 VH with R54K, Q56N, Q57A, N59A, S107A, S108G, V109G, Y113F
VL: B1 VL
notes: IgG: VH joined to human IgG1 CH1-Fc; also called dBBDu121
B6: DADU01_3#002 (antibody, human IgG1, V domains shown)
VH: B3 VH with R54K, G55Q, Q56N, Q57L, P64E, S108T, G112A, Y113F
VL: DIVMTQSPLSLPVTPGEPASISCRSSQSLVHSNRNTYLHWYQQKPGQAPRLLIYKVSNRFSGVPDRFSGSGSGTDFTLKISRVEAEDVGVYYCGQGTQVPYTFGQGTKLEIKR
notes: also called dBBDu124
B7: DADU01_3#018 (antibody, human IgG1, V domains shown)
VH: B3 VH with G55A, Q56N, Q57S, A104S, S105A, S108T, V109L, G112S, Y113F
VL: B6 VL
notes: also called dBBDu123
B8: DXDU01_3#051 (antibody, human IgG1, V domains shown)
VH: B3 VH
VL: B6 VL
notes: also called dBBDu127
B9: DXDU01_3#094 (antibody, human IgG1, V domains shown)
VH: B3 VH with R54K, Q56N, Q57A, N59A, S107A, S108G, V109G, Y113F
VL: B6 VL
notes: also called dBBDu121
B10: DXDU01_3#019 (antibody, human IgG1, V domains shown)
VH: B1 VH
VL: B6 VL
notes: also called dBBDu125
B11: DADU01_3#001 (antibody, human IgG1, V domains shown)
VH: B1 VH with K54R, G57A, T59E, E64P, A105S, V109L
VL: B6 VL
notes: also called dBBDu_126; dBBDu126
B12: anti-human CD137 antibody described in WO2005/035584A1 (abbreviated as B) (antibody, V domains shown)
VH: QVQLQQWGAGLLKPSETLSLTCAVYGGSFSGYYWSWIRQSPEKGLEWIGEINHGGYVTYNPSLESRVTISVDTSKNQFSLKLSSVTAADTAVYYCARDYGPGNYDWYFDLWGRGTLVTVSS
VL: EIVLTQSPATLSLSPGERATLSCRASQSVSSYLAWYQQKPGQAPRLLIYDASNRATGIPARFSGSGSGTDFTLTISSLEPEDFAVYYCQQRSNWPPALTFGGGTKVEIK
notes: Control antibody; also called control anti-CD137 antibody
B13: L chain one-amino acid altered form of GLS3000, G to Y at Kabat position 89 (one-arm antibody: CE115HA000-pE22Hh / Kn010G3 / altered GLS3000-kappa) (antibody, human IgG1, kappa, L234A L235A, N297A, name in Kabat numbering)
heavy: QVQLVESGGGVVQPGRSLRLSCAASGFTFSNAWMHWVRQAPGKGLEWVAQIKAKSNNYATYYAESVKGRFTISRDDSKNSLYLQMNSLKTEDTAVYYCRYVHYGAYYGVDAWGQGTTVTVSSASTKGPSVFPLAPSSKSTSGGTAALGCLVKDYFPEPVTVSWNSGALTSGVHTFPAVLQSSGLYSLSSVVTVPSSSLGTQTYICNVNHKPSNTKVDKKVEPKSCDKTHTCPPCPAPEAAGGPSVFLFPPKPKDTLMISRTPEVTCVVVDVSHEDPEVKFNWYVDGVEVHNAKTKPREEQYASTYRVVSVLTVLHQDWLNGKEYKCKVSNKALPAPIEKTISKAKGQPREPQVYTLPPSRCELTKNQVSLSCAVKGFYPSDIAVEWESNGQPENNYKTTPPVLDSDGSFFLVSKLTVDKSRWQQGNVFSCSVMHEALHNHYTQKSLSLSPDYKDDDDK
chain: EPKSSDKTHTCPPCPAPELLGGPSVFLFPPKPKDTLMISRTPEVTCVVVDVSHEDPEVKFNWYVDGVEVHNAKTKPREEQYNSTYRVVSVLTVLHQDWLNGKEYKCKVSNKALPAPIEKTISKAKGQPREPQVCTLPPSRDELTKNQVSLWCLVKGFYPSDIAVEWESNGQPENNYKTTPPVLDSDGSFFLYSKLTVDKSRWQQGNVFSCSVMHEALHNRYTQKSLSLSP
light: DIVMTQSPLSLPVTPGEPASISCRSSQSLVHSNRNTYLHWYQQKPGQAPRLLIYKVSNRFSGVPDRFSGSGSGTDFTLKISRVEAEDVGVYYCYQGTQVPYTFGQGTKLEIKRTVAAPSVFIFPPSDEQLKSGTASVVCLLNNFYPREAKVQWKVDNALQSGNSQESVTEQDSKDSTYSLSSTLTLSKADYEKHKVYACEVTHQGLSSPVTKSFNRGEC
notes: One-arm antibody (IgG lacking one Fab); also called GLS3000 G89Y
B14: L chain one-amino acid altered form of GLS3000, V to Y at Kabat position 94 (one-arm antibody: CE115HA000-pE22Hh / Kn010G3 / altered GLS3000-kappa) (antibody, human IgG1, kappa, L234A L235A, N297A, name in Kabat numbering)
heavy: B13 heavy
chain: B13 chain
light: B13 light with Y94G, V99Y
notes: One-arm antibody (IgG lacking one Fab); also called GLS3000 V94Y
B15: L chain one-amino acid altered form of GLS3000, Q to Y at Kabat position 90 (one-arm antibody: CE115HA000-pE22Hh / Kn010G3 / altered GLS3000-kappa) (antibody, human IgG1, kappa, L234A L235A, N297A, name in Kabat numbering)
heavy: B13 heavy
chain: B13 chain
light: B13 light with Y94G, Q95Y
notes: One-arm antibody (IgG lacking one Fab); also called GLS3000 Q90Y
B16: L chain one-amino acid altered form of GLS3000, T to Y at Kabat position 92 (one-arm antibody: CE115HA000-pE22Hh / Kn010G3 / altered GLS3000-kappa) (antibody, human IgG1, kappa, L234A L235A, N297A, name in Kabat numbering)
heavy: B13 heavy
chain: B13 chain
light: B13 light with Y94G, T97Y
notes: One-arm antibody (IgG lacking one Fab); also called GLS3000 T92Y
B17: L chain one-amino acid altered form of GLS3000, G to Y at Kabat position 91 (one-arm antibody: CE115HA000-pE22Hh / Kn010G3 / altered GLS3000-kappa) (antibody, human IgG1, kappa, L234A L235A, N297A, name in Kabat numbering)
heavy: B13 heavy
chain: B13 chain
light: B13 light with Y94G, G96Y
notes: One-arm antibody (IgG lacking one Fab); also called GLS3000 G91Y
B18: L chain one-amino acid altered form of GLS3000, Q to Y at Kabat position 93 (one-arm antibody: CE115HA000-pE22Hh / Kn010G3 / altered GLS3000-kappa) (antibody, human IgG1, kappa, L234A L235A, N297A, name in Kabat numbering)
heavy: B13 heavy
chain: B13 chain
light: B13 light with Y94G, Q98Y
notes: One-arm antibody (IgG lacking one Fab); also called GLS3000 Q93Y

Molecular target: T1, biotin-labeled cynomolgus monkey CD137 fused to human IgG1 Fc fragment (cynomolgus monkey, UniProt Q07011 24-186 (human entry), limits assumed, biotin-labeled)
T1 construct: also called cyno CD137-Fc; not shown: human IgG1 Fc fragment
T1 chain: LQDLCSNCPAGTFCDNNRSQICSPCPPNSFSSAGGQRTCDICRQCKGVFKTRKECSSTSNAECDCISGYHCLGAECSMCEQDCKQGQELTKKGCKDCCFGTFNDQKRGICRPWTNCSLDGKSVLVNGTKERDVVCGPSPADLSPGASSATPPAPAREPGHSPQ
Assay: bead ELISA; RLU on cyno CD137-Fc divided by RLU on human Fc

| Binder | S/N ratio cyno CD137-Fc/Fc |
| --- | --- |
| B1 | 1.56 |
| B2 | 0.687 |
| B3 | 3.73 |
| B4 | 1.56 |
| B5 | 8.09 |

molecular target: T2, biotin-labeled human CD137 fused to human IgG1 Fc fragment (human, biotin-labeled); assay: bead ELISA; RLU on human CD137-Fc divided by RLU on human Fc
T2 construct: also called human CD137-Fc; biotin-human CD137-Fc

| Binder | S/N ratio human CD137-Fc/Fc |
| --- | --- |
| B1 | 23.8 |
| B2 | 54.1 |
| B3 | 13.1 |
| B4 | 6.58 |
| B5 | 10.2 |

Molecular target: T3, biotin-labeled CD3 epsilon peptide antigen (human, also: biotin-labeled, position not given here)
T3 construct: Peptide of CD3 epsilon; also called CD3 peptide
T3 peptide: QDGNEEMGGITQTPY
Assay: bead ELISA, biotin-CD3 epsilon peptide on streptavidin beads, 100 ng IgG

| Binder | RLU, CD3 peptide [RLU] | S/N ratio CD3 peptide/non coating |
| --- | --- | --- |
| B6 | 174000 | 156 |
| B7 | 182000 | 149 |
| B8 | 169000 | 145 |
| B9 | 165000 | 141 |
| B10 | 191000 | 161 |
| B11 | 198000 | 146 |

Molecular target: T1, biotin-labeled cynomolgus monkey CD137 …
Assay: bead ELISA (chemiluminescence), purified IgG on biotin labeled cyno CD137-Fc on streptavidin beads

| Binder | RLU [RLU] |
| --- | --- |
| B1 | 5090 |
| B2 | 1210 |
| B3 | 10900 |
| B4 | 3350 |
| B5 | 19100 |

molecular target: T2, biotin-labeled human CD137 fused to …; assay: bead ELISA (chemiluminescence), purified IgG on biotin labeled human CD137-Fc on streptavidin beads

| Binder | RLU [RLU] |
| --- | --- |
| B1 | 77800 |
| B2 | 95300 |
| B3 | 38100 |
| B4 | 14100 |
| B5 | 24200 |

molecular target: T4, biotin-labeled human CD137 fused to human IgG1 Fc fragment (human CD137-Fc) (human, biotin-labeled); assay: competitive bead ELISA, biotin-human CD137-Fc on beads; free CD3e 62.5 pmol against free Fc 62.5 pmol
T4 construct: also called biotin-human CD137-Fc

| Binder | Signal decrease [%] |
| --- | --- |
| B12 | 0.94 |
| B6 | 93.6 |
| B7 | 92.3 |
| B8 | 91.6 |
| B9 | 91.1 |
| B10 | 92.5 |
| B11 | 81.3 |

molecular target: T5, CD3 epsilon homodimer protein (UniProt P07766 23-126); assay: SPR, Biacore T200, CD3 epsilon homodimer immobilized on CM4, one-arm antibody as analyte, 25 degrees C
T5 construct: also called CD3 (CD3 epsilon)

| Binder | ratio of amounts bound (Z = Y/X) against the unaltered GLS3000 antibody |
| --- | --- |
| B13 | 1.19 |
| B14 | 0.63 |
| B15 | 0.17 |
| B16 | 0.33 |
| B17 | 0.17 |
| B18 | 0.87 |

molecular target: T4, biotin-labeled human CD137 fused to …; assay: competitive bead ELISA, biotin-human CD137-Fc on beads, 100 ng IgG, control competitor free human Fc 62.5 pmol

| Binder | ELISA signal with Free Fc 62.5 pmol |
| --- | --- |
| B12 | 184000 |
| B6 | 155000 |
| B7 | 117000 |
| B8 | 128000 |
| B9 | 108000 |
| B10 | 172000 |
| B11 | 81000 |

molecular target: T4, biotin-labeled human CD137 fused to …; assay: competitive bead ELISA, biotin-human CD137-Fc on beads, 100 ng IgG, competitor free CD3 epsilon peptide 62.5 pmol

| Binder | ELISA signal with Free CD3e 62.5 pmol |
| --- | --- |
| B12 | 183000 |
| B6 | 9970 |
| B7 | 9020 |
| B8 | 10800 |
| B9 | 9660 |
| B10 | 12800 |
| B11 | 15100 |
